According to article PMC10659578, “Mechanism of stepwise electron transfer in six-transmembrane epithelial antigen of the prostate (STEAP) 1 and 2” (eLife, 2023):

Legend:
[1] = target: Rabbit six-transmembrane epithelial antigen of the prostate 1 (STEAP1) (rabbit)
[2] = target: Rabbit six-transmembrane epithelial antigen of the prostate 1 (STEAP1) (rabbit); test: BLI; STEAP1 immobilised on amine reactive second-generation biosensors (EDC/Sulfo-NHS); b5R at 20, 10, 5, 2.5, 1.3 and 0.6 uM; 30 C, 1000 rpm; 20 mM HEPES pH 7.5, 150 mM NaCl, 0.1% LMNG, 0.1% BSA; KD from equilibrium responses (Req) against [b5R]

rate constant of the B to C conversion (reduction of the heme of 1.5 uM STEAP1 pre-incubated with 1.5 uM b5R after mixing with 10 uM NADH; rapid-scan stopped flow, anaerobic) [1]: 0.13 s^–1
Kd [2]: 5.9 µM
B1: Mouse cytochrome b5 reductase, soluble form (residues 24-301) (enzyme)
chain: SKVPLKQGRSLMDWIRLTKSGKDLTGLKGGLIEVTEEELKKHNKKEDCWICIRGFVYNVSPYMEYHPGGEDELMRAAGADGTDLFNEVHRWVNYESMLKECLVGRMAVKPAVPKDCHEGKRVLNGMLPKSQMSDTLPRDVTDTLPREDLSSPSYDWFQTESSVTIVVYTKQKNISLDSVIVDLQDDSLRAEAVIKDHSYLVHVGLSHEVQENFSVRVIENVGKIEIVLQKKESVSWQCLGDHLEKHDSFIPKKDTGLYYRRCQLISKEDVTHDTRLFC
